Source: US12698507B2, “Methods and compositions for conferring and/or enhancing herbicide tolerance using protoporphyrinogen IX oxidase of various cyanobacteria or variant thereof” (FarmHannong Co., Ltd., priority 2019, dated 2026)
Positions count from the first letter of the chain named. Numbers in names are those of the source.

B1: CyPPO19 V305L + L327T + I408W + F360V: variant of CyPPO19 PPO protein (SEQ ID NO: 1); printed 305L in Table 9 (protein)
chain: MSEVDVAIVGGGLSGLSLAWRLQQSAPQYSVVLLEASDRLGGNITTQTAEGFVWELGPNSFAPTPALLQLIAEVGLQSELIRGDRHLPRYIYWRGQLYPLQPTRPLALATSNLLSPWGKVRAALGALGFVPPYLGSGDESVNSFFRRHLGQEVAERLVAPFVSGVYAGDPQQLSAAAAFRRIAQLEKLGGGLIAGALHLRRQQAPKPKPPTSVQMRPGELGSFKEGLAALPRAIAQQLKAPIHLQTPVQEITPDPKGGYLLRSGEQTWRARSVVLATPAYQTAELVAPFQPAIARVLATIPYPTLACVVLAYPAGLGRSVRPGFGVTIPRSQGIRTLGTIWSSCLFPQRTPAGWQVFTSVIGGATDPDLASLSEEAIVQQVQQDLNRLLDLPAAKARLLGMKVWRRAWPQYMVGYPEQWQQVTHALSQTPGLFLCSNYAEGVALGDRVEHGNRTAAAVAAYLSGGQP
modifications: Synthetic_PPO of Thermosynechococcus elongatus PKUAC-SCTE542 (comprising GenBank No. CP032152.1)
B2: CyPPO19 V165S + F360T: variant of CyPPO19 PPO protein (SEQ ID NO: 1) (protein)
chain: B1 chain with V165S, L305V, T327L, V360T, W408I
modifications: Synthetic_PPO of Thermosynechococcus elongatus PKUAC-SCTE542 (comprising GenBank No. CP032152.1)
B3: CyPPO19 A167C + F360I: variant of CyPPO19 PPO protein (SEQ ID NO: 1) (protein)
chain: B1 chain with A167C, L305V, T327L, V360I, W408I
modifications: Synthetic_PPO of Thermosynechococcus elongatus PKUAC-SCTE542 (comprising GenBank No. CP032152.1)

The molecules below were run on PPO-deficient BT3 E. coli (ΔPPO) (assay: PPO-inhibiting herbicide tolerance test of PPO variants in E. coli (growth on herbicide-containing LB agar)). Settings: CyPPO19 variants in BT3 (ΔPPO) E. coli; LB agar with 0 to 2,000 μM herbicide, 37° C., dark, 16-20 hours.
Assay type: cell-based
Procedure, shortened: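 PPO-deficient BT3 E. coli expressing each variant from pET303 were diluted to OD600=0.5, then 10-fold serially, and spotted on LB-ampicillin agar with 0 to 2,000 μM herbicide. After 16-20 h at 37° C. in the dark, growth relative to wild type was scored from '−' (equivalent) to '+' per 10-fold resistance, max '+++++'.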

Row | Molecule | tolerance level relative to wild type, Carfentrazone | tolerance level relative to wild type, Flumioxazin | tolerance level relative to wild type, Fomesafen | tolerance level relative to wild type, Oxyfluorfen | tolerance level relative to wild type, Saflufenacil | tolerance level relative to wild type, Sulfentrazone | tolerance level relative to wild type, Tiafenacil
1 | B1 | + (‘+’ per each 10-fold resistance) | +++++ (until ‘+++++’ as maximal resistance) | +++ (‘+’ per each 10-fold resistance) | +++ (‘+’ per each 10-fold resistance) | +++++ (until ‘+++++’ as maximal resistance) | +++++ (until ‘+++++’ as maximal resistance) | +++++ (until ‘+++++’ as maximal resistance)
2 | B2 | + (‘+’ per each 10-fold resistance) | +++ (‘+’ per each 10-fold resistance) | + (‘+’ per each 10-fold resistance) | + (‘+’ per each 10-fold resistance) | +++ (‘+’ per each 10-fold resistance) | ++ (‘+’ per each 10-fold resistance) | ++++ (‘+’ per each 10-fold resistance)
3 | B3 | + (‘+’ per each 10-fold resistance) | ++++ (‘+’ per each 10-fold resistance) | + (‘+’ per each 10-fold resistance) | + (‘+’ per each 10-fold resistance) | +++ (‘+’ per each 10-fold resistance) | ++ (‘+’ per each 10-fold resistance) | ++++ (‘+’ per each 10-fold resistance)
